Assay results as given in US20250092426, “CAS ENDONUCLEASES AND RELATED METHODS” (Flagship Pioneering Innovations VII, LLC, published 2025).

Biological target: T1, CasEnd-17 (synthetic construct)
T1 chain: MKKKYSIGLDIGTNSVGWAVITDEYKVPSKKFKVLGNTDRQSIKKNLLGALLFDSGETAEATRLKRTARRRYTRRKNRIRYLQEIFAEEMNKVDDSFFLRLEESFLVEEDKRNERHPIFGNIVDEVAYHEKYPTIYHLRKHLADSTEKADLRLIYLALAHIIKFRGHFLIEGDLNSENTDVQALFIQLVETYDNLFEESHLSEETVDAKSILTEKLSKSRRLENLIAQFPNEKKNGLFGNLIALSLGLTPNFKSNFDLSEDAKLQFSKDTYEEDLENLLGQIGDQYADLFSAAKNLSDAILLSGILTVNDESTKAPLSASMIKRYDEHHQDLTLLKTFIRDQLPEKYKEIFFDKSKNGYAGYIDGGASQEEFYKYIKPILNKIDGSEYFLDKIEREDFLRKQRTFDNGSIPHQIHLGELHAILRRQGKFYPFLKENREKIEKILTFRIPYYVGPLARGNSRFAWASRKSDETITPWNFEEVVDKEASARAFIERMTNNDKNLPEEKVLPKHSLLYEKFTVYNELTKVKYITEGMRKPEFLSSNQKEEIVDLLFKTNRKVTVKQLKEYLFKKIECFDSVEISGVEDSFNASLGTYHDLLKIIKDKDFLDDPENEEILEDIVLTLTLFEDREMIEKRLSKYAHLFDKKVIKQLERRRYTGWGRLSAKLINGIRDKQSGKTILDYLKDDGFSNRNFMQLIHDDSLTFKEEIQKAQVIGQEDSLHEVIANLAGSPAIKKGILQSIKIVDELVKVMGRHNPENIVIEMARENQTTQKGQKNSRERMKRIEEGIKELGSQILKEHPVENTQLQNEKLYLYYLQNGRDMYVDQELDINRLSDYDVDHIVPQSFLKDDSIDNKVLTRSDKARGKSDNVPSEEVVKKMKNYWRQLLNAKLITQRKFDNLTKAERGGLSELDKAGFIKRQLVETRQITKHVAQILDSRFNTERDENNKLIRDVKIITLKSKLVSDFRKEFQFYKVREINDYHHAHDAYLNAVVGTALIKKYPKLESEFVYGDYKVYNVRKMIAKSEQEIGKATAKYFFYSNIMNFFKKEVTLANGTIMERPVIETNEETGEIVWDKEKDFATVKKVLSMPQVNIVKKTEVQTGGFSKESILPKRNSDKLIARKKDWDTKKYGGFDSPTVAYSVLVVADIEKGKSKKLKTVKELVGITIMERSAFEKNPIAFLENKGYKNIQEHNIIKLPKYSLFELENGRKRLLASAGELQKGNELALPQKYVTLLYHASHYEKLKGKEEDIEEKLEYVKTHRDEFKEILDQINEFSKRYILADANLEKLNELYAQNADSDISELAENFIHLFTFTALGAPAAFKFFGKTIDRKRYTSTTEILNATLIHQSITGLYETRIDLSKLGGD
Test: cell_activity; +++; HEK293T; PAM not stated
Summary of the method: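 Editing activity was scored as the fraction of GFP+ cells on day 4 by flow cytometry. BFP-expressing HEK293T cells (250,000) received by nucleofection 200 ng plasmid for the RT-Cas fusion protein and 200 ng template RNA plasmid designed to convert BFP to GFP.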

B1: BFP-to-GFP template RNA ; BFP reporter protospacer (ssRNA ; dsDNA)
RNA: GCCGAAGCACUGCACGCCGUGUUUUAGAGCUAGAAAUAGCAAGUUAAAAUAAGGCUAGUCCGUUAUCAACUUGAAAAAGUGGCACCGAGUCGGUGCACCCUGACGUACGGCGUGCAGUGCUU
DNA 1: GCCGAAGCACTGCACGCCGT
DNA 2: ACGGCGTGCAGTGCTTCGGC
- activity: ≥ 100 % of reference
